Laboratory results published in publication PMC4335687 (Growth factors (Chur, Switzerland), 2014).

Biological target: EphA2 ligand-binding domain, untagged (UniProt P29317)
Assay: SEC

EphA2 ligand-binding domain, untagged, sequence (P29317 24-206): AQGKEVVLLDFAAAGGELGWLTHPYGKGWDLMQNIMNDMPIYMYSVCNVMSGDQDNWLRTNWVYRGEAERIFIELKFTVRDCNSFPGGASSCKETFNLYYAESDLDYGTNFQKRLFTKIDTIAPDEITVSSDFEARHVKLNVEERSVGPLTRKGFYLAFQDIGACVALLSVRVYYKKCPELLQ

stoichiometry N: 1
B1: D2 scFv-6xHis (monomeric anti-EphA2 single-chain antibody) (scFv, V domains shown)
VH: EVQLLESGGGLVQPGGSLRLSCAASGFTFSRYWMHWVRQAPGKGLEWVSSISPYDGETNYADSVKGRFTISRDNSKNTLYLQMNSLRAEDTAVYYCARISEWYNWAVDVFDYWGQGTLVTVSS
VL: EIVLTQSPGTLSLSPGERATLSCRASQSVSSSNLAWYQQKPGQAPRLLIYGASSRATGVPDRFSGSGSGTDFTLTISRLEPEDFAVYYCQQSSSYPWTFGQGTKVEIK
